The values below come from patent publication US20260242735A1 (UNIVERSIT T BASEL, published 2026).

Sequences and labels used below:
B1: Refmab #4 (antibody, V domains shown)
VH: QVQLVQSGAEVKKPGESVKVSCKASGYTFTNYGMNWVKQAPGQGLEWMGWINTYTGEPTYADKFQGRVTMTTDTSTSTAYMEIRNLGGDDTAVYYCARWSWSDGYYVYFDYWGQGTSVTVSS
VL: DIVMTQSPDSLTVSLGERTTINCKSSQSVLDSSTNKNSLAWYQQKPGQPPKLLLSWASTRESGIPDRFSGSGSGTDFTLTIDSPQPEDSATYYCQQSAHFPITFGQGTRLEIK
notes: In the alanine scan antibodies were used as IgG or Fab
B2: Refmab #1 (antibody, V domains shown)
VH: EVQLVQSGAEVKKPGSSVKVSCKASGYTITDSNIHWVRQAPGQSLEWIGYIYPYNGGTDYNQKFKNRATLTVDNPTNTAYMELSSLRSEDTAFYYCVNGNPWLAYWGQGTLVTVSS
VL: DIQLTQSPSTLSASVGDRVTITCRASESLDNYGIRFLTWFQQKPGKAPKLLMYAASNQGSGVPSRFSGSGSGTEFTLTISSLQPDDFATYYCQQTKEVPWSFGQGTKVEVK
notes: In the alanine scan antibodies were used as IgG or Fab; also called hP67.6
B3: Refmab #3 (antibody, V domains shown)
VH: QVQLVQSGAEVKKPGSSVKVSCKASGYTFTDYNMHWVRQAPGQGLEWIGYIYPYNGGTGYNQKFKSKATITADESTNTAYMELSSLRSEDTAVYYCARGRPAMDYWGQGTLVTVSS
VL: DIQMTQSPSSLSASVGDRVTITCRASESVDNYGISFMNWFQQKPGKAPKLLIYAASNQGSGVPSRFSGSGSGTDFTLTISSLQPDDFATYYCQQSKEVPWTFGQGTKVEIK
notes: as for B1
B4: Refmab #2 (antibody, V domains shown)
VH: QVQLVQSGAEVKKPGSSVKVSCKASGGTFSDYAISWVRQAPGQGLEWMGRIIPILGVADYAQKFQGRVTITADKSTRTAYMELSSLRSEDTAVYYCARNWADAFDIWGQGTMVTVSS
VL: DIQLTQSPSSLSASVGDRVTITCRASQGISSVLAWYQQKPGKAPKLLIYDASSLESGVPSRFSGSGSGTDFTLTISSLQPEDFATYYCQQFDSSITFGQGTKLEIK
notes: as for B1
B5: Refmab #1 (antibody, V domains shown)
VH: B2 VH
VL: B2 VL
notes: The alanine scan used IgG or Fab; also called hP67.6
B6: Refmab #2 (antibody, V domains shown)
VH: B4 VH
VL: B4 VL
notes: The alanine scan used IgG or Fab

Chain of human CD33 S181A (P20138 18-364 S181A limits assumed): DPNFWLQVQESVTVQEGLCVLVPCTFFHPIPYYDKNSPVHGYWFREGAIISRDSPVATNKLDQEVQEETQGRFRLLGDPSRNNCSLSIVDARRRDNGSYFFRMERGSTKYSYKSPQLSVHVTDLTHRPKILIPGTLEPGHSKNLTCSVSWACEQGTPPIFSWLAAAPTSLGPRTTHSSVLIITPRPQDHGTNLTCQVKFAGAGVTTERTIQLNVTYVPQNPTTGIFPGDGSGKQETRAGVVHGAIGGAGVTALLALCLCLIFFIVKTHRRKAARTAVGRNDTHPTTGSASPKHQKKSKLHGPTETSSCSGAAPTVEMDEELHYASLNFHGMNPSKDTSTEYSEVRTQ
Chain of human CD33 Q213A (P20138 18-364 Q213A limits assumed): as the sequence (P20138 18-364 S181A limits assumed) above, with A164S, Q196A counted along it
Chain of human CD33 T211A (P20138 18-364 T211A limits assumed): as the sequence (P20138 18-364 S181A limits assumed) above, with A164S, T194A counted along it
Chain of human CD33 T222A (P20138 18-364 T222A limits assumed): as the sequence (P20138 18-364 S181A limits assumed) above, with A164S, T205A counted along it
Chain of human CD33 T200A (P20138 18-364 T200A limits assumed): as the sequence (P20138 18-364 S181A limits assumed) above, with A164S, T183A counted along it
Chain of human CD33 P244A (P20138 18-364 P244A limits assumed): as the sequence (P20138 18-364 S181A limits assumed) above, with A164S, P227A counted along it
Chain of human CD33 N297A (P20138 18-364 N297A limits assumed): as the sequence (P20138 18-364 S181A limits assumed) above, with A164S, N280A counted along it
Chain of human CD33 G247A (P20138 18-364 G247A limits assumed): as the sequence (P20138 18-364 S181A limits assumed) above, with A164S, G230A counted along it
Chain of human CD33 R286A (P20138 18-364 R286A limits assumed): as the sequence (P20138 18-364 S181A limits assumed) above, with A164S, R269A counted along it

For one test, the target named is human CD33 I176A (human, UniProt P20138 18-364). The experiment in a line: alanine scan, flow cytometry, HEK293-T.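 Note: antibody binding to each alanine-substituted CD33 mutant expressed transiently in HEK293-T, read as fluorescence minus background, mean of duplicates, relative to wild-type CD33 set as 100%.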 Background: A flow cytometer gives signals particle by particle.
Chain of human CD33 I176A (P20138 18-364 I176A limits assumed): as the sequence (P20138 18-364 S181A limits assumed) above, with I159A, A164S counted along it
As for B1, the “Mean % WT Binding” value is 124%.
Same read-out and setting: the result for B2 reads 93.5%; that for B3, 100%; that for B4, 124%.

Another test addresses human CD33 S181A (human, UniProt P20138 18-364). The experiment in a line: alanine scan, flow cytometry, HEK293-T.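 Note: antibody binding to each alanine-substituted CD33 mutant expressed transiently in HEK293-T, read as fluorescence minus background, mean of duplicates, relative to wild-type CD33 set as 100%.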
As for B1, the “Mean % WT Binding” value stood at 114%.
Still for that read-out and setting: the result for B2 reads 85.5%; that for B3, 128%.
Same read-out and setting: the result for B4 reads 116%.

The target in the next test is human CD33 A182S (human, UniProt P20138 18-364). The experiment in a line: alanine scan, flow cytometry, HEK293-T.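 Note: antibody binding to each alanine-substituted CD33 mutant expressed transiently in HEK293-T, read as fluorescence minus background, mean of duplicates, relative to wild-type CD33 set as 100%.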
Chain of human CD33 A182S (P20138 18-364 A182S limits assumed): as the sequence (P20138 18-364 S181A limits assumed) above, with A164S, A165S counted along it
For the molecule B1, the “Mean % WT Binding” value came to 108%.
In the case of B2, the “Mean % WT Binding” value was 85.8%.
On the same count and under the same terms, the result for B3 reads 127%; that for B4, 115%.

The target of another test is human CD33 T192A (human, UniProt P20138 18-364). The experiment in a line: alanine scan, flow cytometry, HEK293-T.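 Note: antibody binding to each alanine-substituted CD33 mutant expressed transiently in HEK293-T, read as fluorescence minus background, mean of duplicates, relative to wild-type CD33 set as 100%.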
Chain of human CD33 T192A (P20138 18-364 T192A limits assumed): as the sequence (P20138 18-364 S181A limits assumed) above, with A164S, T175A counted along it
B1: the “Mean % WT Binding” value was 99.7%.
Still for that read-out and setting: the result for B2 reads 101%; that for B3, 102%; that for B4, 119%.

In the next test the target is human CD33 I199A (human, UniProt P20138 18-364). The experiment in a line: alanine scan, flow cytometry, HEK293-T.
Chain of human CD33 I199A (P20138 18-364 I199A limits assumed): as the sequence (P20138 18-364 S181A limits assumed) above, with A164S, I182A counted along it
Regarding B1, the “Mean % WT Binding” value stood at 114%.
B2: the “Mean % WT Binding” value was determined as 98.5%.
On the same count and under the same terms, the result for B3 reads 112%.
Same read-out and setting: the result for B4 reads 125%.

A further test has as its target human CD33 T200A (human, UniProt P20138 18-364). The experiment in a line: alanine scan, flow cytometry, HEK293-T.
For the molecule B1, the “Mean % WT Binding” value was 88.8%.
With B2, the “Mean % WT Binding” value is 85.2%.
The same measure, in the same setting: the result for B3 reads 82.4%; that for B4, 111%.

The target in a further test is human CD33 P201A (human, UniProt P20138 18-364). The experiment in a line: alanine scan, flow cytometry, HEK293-T.
Chain of human CD33 P201A (P20138 18-364 P201A limits assumed): as the sequence (P20138 18-364 S181A limits assumed) above, with A164S, P184A counted along it
For B1, the “Mean % WT Binding” value came out at 103%.
The same measure, in the same setting: the result for B2 reads 85.6%; that for B3, 90.9%.
In the case of B4, the “Mean % WT Binding” value was 110%.

The next test concerns the target human CD33 T211A (human, UniProt P20138 18-364). The experiment in a line: alanine scan, flow cytometry, HEK293-T.
For the molecule B1, the “Mean % WT Binding” value was determined as 79.4%.
On the same count and under the same terms, the result for B2 reads 82.4%.
The same measure, in the same setting: the result for B3 reads 96.2%; that for B4, 111%.

The next test concerns the target human CD33 Q213A (human, UniProt P20138 18-364). The experiment in a line: alanine scan, flow cytometry, HEK293-T.
B1: the “Mean % WT Binding” value amounted to 103%.
The same measure, in the same setting: the result for B2 reads 95.3%; that for B3, 135%.
The same measure, in the same setting: the result for B4 reads 115%.

The next test concerns the target human CD33 T222A (human, UniProt P20138 18-364). The experiment in a line: alanine scan, flow cytometry, HEK293-T.
Turning to B1, the “Mean % WT Binding” value turned out to be 109%.
On the same count and under the same terms, the result for B2 reads 88.7%; that for B3, 117%.
As to B4, the “Mean % WT Binding” value is 121%.

The target of a further test is human CD33 T226A (human, UniProt P20138 18-364). The experiment in a line: alanine scan, flow cytometry, HEK293-T.
Chain of human CD33 T226A (P20138 18-364 T226A limits assumed): as the sequence (P20138 18-364 S181A limits assumed) above, with A164S, T209A counted along it
Consider B1, for which the “Mean % WT Binding” value came to 91.9%.
The same measure, in the same setting: the result for B2 reads 92%; that for B3, 100%; that for B4, 112%.

The target in another test is human CD33 Q228A (human, UniProt P20138 18-364). The experiment in a line: alanine scan, flow cytometry, HEK293-T.
Chain of human CD33 Q228A (P20138 18-364 Q228A limits assumed): as the sequence (P20138 18-364 S181A limits assumed) above, with A164S, Q211A counted along it
With B1, the “Mean % WT Binding” value came out at 112%.
Same read-out and setting: the result for B2 reads 99.4%; that for B3, 157%; that for B4, 120%.

The next test deals with human CD33 L229A (human, UniProt P20138 18-364). The experiment in a line: alanine scan, flow cytometry, HEK293-T.
Chain of human CD33 L229A (P20138 18-364 L229A limits assumed): as the sequence (P20138 18-364 S181A limits assumed) above, with A164S, L212A counted along it
With B1, the “Mean % WT Binding” value was determined as 89.1%.
Still for that read-out and setting: the result for B2 reads 93.1%; that for B3, 150%; that for B4, 113%.

In another test the target is human CD33 N230A (human, UniProt P20138 18-364). The experiment in a line: alanine scan, flow cytometry, HEK293-T.
Chain of human CD33 N230A (P20138 18-364 N230A limits assumed): as the sequence (P20138 18-364 S181A limits assumed) above, with A164S, N213A counted along it
With B1, the “Mean % WT Binding” value was determined as 63.5%.
As for B2, the “Mean % WT Binding” value came out at 83.6%.
Same read-out and setting: the result for B3 reads 109%; that for B4, 96.4%.

Another test deals with human CD33 C169A (human, UniProt P20138 18-364). The experiment in a line: alanine scan, flow cytometry, HEK293-T.
Chain of human CD33 C169A (P20138 18-364 C169A limits assumed): as the sequence (P20138 18-364 S181A limits assumed) above, with C152A, A164S counted along it
B1: the “Mean % WT Binding” value amounted to 69.3%.
The same measure, in the same setting: the result for B2 reads 75.8%.
The same measure, in the same setting: the result for B3 reads 115%; that for B4, 106%.

The target in the next test is human CD33 G241A (human, UniProt P20138 18-364). The experiment in a line: alanine scan, flow cytometry, HEK293-T.
Chain of human CD33 G241A (P20138 18-364 G241A limits assumed): as the sequence (P20138 18-364 S181A limits assumed) above, with A164S, G224A counted along it
With B1, the “Mean % WT Binding” value was 109%.
Still for that read-out and setting: the result for B2 reads 102%.
Same read-out and setting: the result for B3 reads 128%.
On the same count and under the same terms, the result for B4 reads 111%.

The target in the next test is human CD33 E170A (human, UniProt P20138 18-364). The experiment in a line: alanine scan, flow cytometry, HEK293-T.
Chain of human CD33 E170A (P20138 18-364 E170A limits assumed): as the sequence (P20138 18-364 S181A limits assumed) above, with E153A, A164S counted along it
With B1, the “Mean % WT Binding” value came out at 95.5%.
With B2, the “Mean % WT Binding” value was 90.9%.
Regarding B3, the “Mean % WT Binding” value was found to be 148%.
Same read-out and setting: the result for B4 reads 123%.

In a further test the target is human CD33 R254A (human, UniProt P20138 18-364). The experiment in a line: alanine scan, flow cytometry, HEK293-T.
Chain of human CD33 R254A (P20138 18-364 R254A limits assumed): as the sequence (P20138 18-364 S181A limits assumed) above, with A164S, R237A counted along it
On to B5, for which the “Mean % WT Binding” value amounted to 101 % WT binding.
With B6, the “Mean % WT Binding” value was 118 % WT binding.

For a further test, the target named is human CD33 G256A (human, UniProt P20138 18-364). The experiment in a line: alanine scan, flow cytometry, HEK293-T.
Chain of human CD33 G256A (P20138 18-364 G256A limits assumed): as the sequence (P20138 18-364 S181A limits assumed) above, with A164S, G239A counted along it
As for B5, the “Mean % WT Binding” value was 89.8 % WT binding.
B6: the “Mean % WT Binding” value came to 117 % WT binding.

The target of a further test is human CD33 G263A (human, UniProt P20138 18-364). The experiment in a line: alanine scan, flow cytometry, HEK293-T.
Chain of human CD33 G263A (P20138 18-364 G263A limits assumed): as the sequence (P20138 18-364 S181A limits assumed) above, with A164S, G246A counted along it
In the case of B5, the “Mean % WT Binding” value worked out at 98.9 % WT binding.
The same measure, in the same setting: the result for B6 reads 102 % WT binding.

For another test, the target named is human CD33 A269S (human, UniProt P20138 18-364). The experiment in a line: alanine scan, flow cytometry, HEK293-T.
Chain of human CD33 A269S (P20138 18-364 A269S limits assumed): as the sequence (P20138 18-364 S181A limits assumed) above, with A164S, A252S counted along it
Turning to B5, the “Mean % WT Binding” value is 107 % WT binding.
In the case of B6, the “Mean % WT Binding” value came out at 111 % WT binding.

A further test concerns the target human CD33 R286A (human, UniProt P20138 18-364). The experiment in a line: alanine scan, flow cytometry, HEK293-T.
Regarding B5, the “Mean % WT Binding” value stood at 96.3 % WT binding.
Still for that read-out and setting: the result for B6 reads 117 % WT binding.

The target in another test is human CD33 K288A (human, UniProt P20138 18-364). The experiment in a line: alanine scan, flow cytometry, HEK293-T.
Chain of human CD33 K288A (P20138 18-364 K288A limits assumed): as the sequence (P20138 18-364 S181A limits assumed) above, with A164S, K271A counted along it
Turning to B5, the “Mean % WT Binding” value came to 112 % WT binding.
Consider B6, for which the “Mean % WT Binding” value was found to be 108 % WT binding.

The next test deals with human CD33 A289S (human, UniProt P20138 18-364). The experiment in a line: alanine scan, flow cytometry, HEK293-T.
Chain of human CD33 A289S (P20138 18-364 A289S limits assumed): as the sequence (P20138 18-364 S181A limits assumed) above, with A164S, A272S counted along it
For B5, the “Mean % WT Binding” value stood at 97.1 % WT binding.
For the molecule B6, the “Mean % WT Binding” value worked out at 111 % WT binding.

In a further test the target is human CD33 G295A (human, UniProt P20138 18-364). The experiment in a line: alanine scan, flow cytometry, HEK293-T.
Chain of human CD33 G295A (P20138 18-364 G295A limits assumed): as the sequence (P20138 18-364 S181A limits assumed) above, with A164S, G278A counted along it
For B5, the “Mean % WT Binding” value was determined as 92.7 % WT binding.
Regarding B6, the “Mean % WT Binding” value is 110 % WT binding.

For the next test, the target named is human CD33 R296A (human, UniProt P20138 18-364). The experiment in a line: alanine scan, flow cytometry, HEK293-T.
Chain of human CD33 R296A (P20138 18-364 R296A limits assumed): as the sequence (P20138 18-364 S181A limits assumed) above, with A164S, R279A counted along it
In the case of B5, the “Mean % WT Binding” value was found to be 101 % WT binding.
Still for that read-out and setting: the result for B6 reads 111 % WT binding.

Another test concerns the target human CD33 N297A (human, UniProt P20138 18-364). The experiment in a line: alanine scan, flow cytometry, HEK293-T.
As to B5, the “Mean % WT Binding” value was found to be 94.9 % WT binding.
On the same count and under the same terms, the result for B6 reads 108 % WT binding.

The next test addresses human CD33 P244A (human, UniProt P20138 18-364). The experiment in a line: alanine scan, flow cytometry, HEK293-T.
In the case of B5, the “Mean % WT Binding” value came to 84.3 % WT binding.
On the same count and under the same terms, the result for B6 reads 112 % WT binding.

The next test concerns the target human CD33 G247A (human, UniProt P20138 18-364). The experiment in a line: alanine scan, flow cytometry, HEK293-T.
With B5, the “Mean % WT Binding” value is 98.5 % WT binding.
As for B6, the “Mean % WT Binding” value was 110 % WT binding.
